The results in this text go back to PMC12354661.

The target of data set [1] is T1, C-type lectin-like molecule-1 (CLL-1), immobilized on magnetic beads or SPR chip (UniProt Q5QGZ9).
T1 sequence: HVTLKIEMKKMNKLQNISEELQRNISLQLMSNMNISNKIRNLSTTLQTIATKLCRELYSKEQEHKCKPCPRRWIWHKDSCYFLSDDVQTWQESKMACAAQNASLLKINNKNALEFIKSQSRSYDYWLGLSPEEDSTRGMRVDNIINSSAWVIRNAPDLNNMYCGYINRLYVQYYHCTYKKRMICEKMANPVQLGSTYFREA
Put plainly: SPR. To be noted: aptamer 0.000244-0.0625 uM, Flow cytometry: 100 nM FAM-aptamer, 10 uL MB-CLL-1 in 200 uL DPBS, room temperature, 30 min, 150 rpm, 3 DPBS washes, SPR buffer and temperature not stated.

In data set [2] the target is T1, C-type lectin-like molecule-1 (CLL-1), immobilized on magnetic beads or SPR chip. Briefly: flow cytometry (bead binding). Conditions: Flow cytometry: 100 nM FAM-aptamer, 10 uL MB-CLL-1 in 200 uL DPBS, room temperature, 30 min, 150 rpm, 3 DPBS washes, SPR buffer and temperature not stated. On the technique in general: In flow cytometry, cells or beads pass a laser one at a time.

In turn, “ATTACCAGGGACCGAAGGCAAAACTATGATCGGTGG [Aptamer-2 (Apt-2)]” returned a Kd in data set [1] of 15.5 nM. For the same sequence, the binding signal (% FITC-positive beads) in data set [2] (100 nM aptamer) worked out at 94.3; in data set [2] (100 nM aptamer, specificity experiment), 100.
In the case of “CACGAACCGGGGAGGGCGGGCGGGTTGGTGTCGTGC [Aptamer-3 (Apt-3)]”, the binding signal (% FITC-positive beads) in data set [2] amounted to 1.23.
Sequence “AACACTGGGGGCTGCTCGGGATTGTCGGACGTGGTG [Aptamer-4 (Apt-4)]” gave a binding signal (% FITC-positive beads) in data set [2] (100 nM aptamer) of 2.84.
“TCGCGAAGGGTGGGGACTGCTCGGGATTGCGGATGC [Aptamer-1 (Apt-1)]” registered a binding signal (% FITC-positive beads) in data set [2] (100 nM aptamer, text gives 3.28) of 3.26.

As a reminder, the Kd is the equilibrium constant for the complex coming apart. High values mean weaker binding, low ones tighter binding.
